Paper PMC2921846

Biological target: PKCα-YFP (mouse) (UniProt P20444)
Assay: FRET or BRET

## Erk-CFP (from UniProt P63085 1-358) (natural protein)
  FRET efficiency: 7.19%
